Laboratory results from article PMC10397247.
Each block holds one binder with its values, some of them ahead of it.

What was measured:
Assay in all cases: two-hybrid library CCNG1;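 also: natural log of median RNA to DNA barcode read ratio; higher means stronger binding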
4H1393-bH = biological target: T1, 4H1393-bH
T1 chain: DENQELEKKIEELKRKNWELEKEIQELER

4H1449-bH = biological target: T2, 4H1449-bH
T2 chain: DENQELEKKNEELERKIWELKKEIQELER

4H1629-bH = biological target: T3, 4H1629-bH
T3 chain: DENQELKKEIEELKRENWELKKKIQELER

4H1710-bH = biological target: T4, 4H1710-bH
T4 chain: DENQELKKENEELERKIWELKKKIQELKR

4H1804-bH = biological target: T5, 4H1804-bH
T5 chain: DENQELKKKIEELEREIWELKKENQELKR

4H2702-bA = biological target: T6, 4H2702-bA
T6 chain: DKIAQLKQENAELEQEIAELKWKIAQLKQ

4H3129-bH = biological target: T7, 4H3129-bH
T7 chain: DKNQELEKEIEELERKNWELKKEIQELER

4H3172-bH = biological target: T8, 4H3172-bH
T8 chain: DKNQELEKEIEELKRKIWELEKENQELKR

4H3414-bH = biological target: T9, 4H3414-bH
T9 chain: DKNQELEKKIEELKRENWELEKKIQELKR

4H3628-bA = biological target: T10, 4H3628-bA
T10 chain: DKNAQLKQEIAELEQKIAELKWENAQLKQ

4H3638-bH = biological target: T11, 4H3638-bH
T11 chain: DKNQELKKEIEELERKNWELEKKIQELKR

4H3817-bH = biological target: T12, 4H3817-bH
T12 chain: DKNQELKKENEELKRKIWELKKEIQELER

4H3974-bH = biological target: T13, 4H3974-bH
T13 chain: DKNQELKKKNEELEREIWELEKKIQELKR

4H570-bH = biological target: T14, 4H570-bH
T14 chain: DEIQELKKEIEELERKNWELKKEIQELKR

4H584-bH = biological target: T15, 4H584-bH
T15 chain: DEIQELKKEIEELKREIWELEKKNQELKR

4H619-bH = biological target: T16, 4H619-bH
T16 chain: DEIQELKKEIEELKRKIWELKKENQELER

4H850-bH = biological target: T17, 4H850-bH
T17 chain: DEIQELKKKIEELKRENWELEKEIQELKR

4H906-bH = biological target: T18, 4H906-bH
T18 chain: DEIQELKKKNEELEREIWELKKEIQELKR

4H754-bA = biological target: T19, 4H754-bA
T19 chain: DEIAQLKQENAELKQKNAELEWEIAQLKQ

4H780-bA = biological target: T20, 4H780-bA
T20 chain: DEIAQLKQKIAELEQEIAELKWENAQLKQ

4H797-bA = biological target: T21, 4H797-bA
T21 chain: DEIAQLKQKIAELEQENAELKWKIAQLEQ

4H855-bA = biological target: T22, 4H855-bA
T22 chain: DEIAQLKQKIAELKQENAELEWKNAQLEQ

4H883-bA = biological target: T23, 4H883-bA
T23 chain: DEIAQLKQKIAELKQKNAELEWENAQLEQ

4H908-bA = biological target: T24, 4H908-bA
T24 chain: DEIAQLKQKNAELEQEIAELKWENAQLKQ

4H908-bN = biological target: T25, 4H908-bN
T25 chain: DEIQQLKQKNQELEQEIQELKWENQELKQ

4H918-bA = biological target: T26, 4H918-bA
T26 chain: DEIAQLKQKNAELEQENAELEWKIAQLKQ

4H953-bA = biological target: T27, 4H953-bA
T27 chain: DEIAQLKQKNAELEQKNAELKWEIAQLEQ

4H967-bA = biological target: T28, 4H967-bA
T28 chain: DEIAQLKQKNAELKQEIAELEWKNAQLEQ

4H968-bA = biological target: T29, 4H968-bA
T29 chain: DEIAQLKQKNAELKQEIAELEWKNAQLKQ

P11mS = biological target: T30, P11mS
T30 chain: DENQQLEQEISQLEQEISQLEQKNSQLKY

interaction score (4H1393-bH): -0.111
interaction score (4H1449-bH): -2.77
interaction score (4H1629-bH): -0.557
interaction score (4H1710-bH): -0.501
interaction score (4H1804-bH): -1.63
interaction score (4H2702-bA): -2.15
interaction score (4H3129-bH): 0.0961
interaction score (4H3172-bH): -0.553
interaction score (4H3414-bH): 1
interaction score (4H3628-bA): -0.789
interaction score (4H3638-bH): 1.2
interaction score (4H3817-bH): -0.474
interaction score (4H3974-bH): 0.0308
interaction score (4H570-bH): -0.453
interaction score (4H584-bH): -0.3
interaction score (4H619-bH): -1.79
interaction score (4H850-bH): 0.00584
interaction score (4H906-bH): -1.05
Binder: DENQELEKKIEELKRKNWELEKEIQELER [4H1393-bH]

interaction score (4H754-bA): 1.57
interaction score (4H780-bA): -1.48
interaction score (4H797-bA): -0.233
interaction score (4H855-bA): -0.914
interaction score (4H883-bA): -0.374
interaction score (4H908-bA): -0.879
interaction score (4H908-bN): -0.94
interaction score (4H918-bA): -0.579
interaction score (4H953-bA): 0.496
interaction score (4H967-bA): -0.575
interaction score (4H968-bA): -0.368
interaction score (P11mS): -1.53
Binder: DEIAQLKQENAELKQKNAELEWEIAQLKQ [4H754-bA]
